From PMC7606508, “Synthesis of two new lipid mediators from docosahexaenoic acid by combinatorial catalysis involving enzymatic and chemical reaction” (Scientific Reports, 2020)

Experiments:
Assay in all cases: purified protein
Type in all cases: biochemical, Phormidium nigroviride
Details in all cases: 50 mM Tris-HCl pH 8.0, 30 °C, 3 μg/mL enzyme, 25-175 μM substrate
purified protein [1] = substrate: CCCCC/C=C\C/C=C\C/C=C\C/C=C\CCCC(=O)O
purified protein [2] = substrate: CC/C=C\C/C=C\C/C=C\C/C=C\C/C=C\CCCC(=O)O
purified protein [3] = substrate: CC/C=C\C/C=C\C/C=C\C/C=C\C/C=C\C/C=C\CCC(=O)O

B1: Osc-LOX (Phormidium nigroviride PCC 7112) (protein)
chain: MVDNMKPSLPQDDPNQEQRKDSLNRQQQAYQFDYESLSPLALLKNVPAVENFSSKYIGERILATSELPANMLAADSRTFLDPLDELQDYEDFFTLLPLPAVAKIYQTDRSFAEQRLSGANPMVLRLLDAGDPRAQTLAQISSFHPLFDLGQELQQKNIYVADYTGTDEHYRAPSKIGGGSYEKGRKFLPKPRAFFAWRWTGIRDRGEMTPIAIQLDPTPDSHVYTPFDPPVDWLFAKLCVQVADANHHEMSSHLGRTHLVMEPIAIVTARQLAQNHPLSLLLKPHFRFMLTNNELARSYLIAPGGPVDELLGGTLPETMEIAREACSTWSLDEFALPAELKNRGMDDTNQLPHYPYRDDGLLLWDAIETFVSGYLKFFYPTEIAIVQDVELQTWAQELASDRGGKVKGMPPRINTVEQLIKIVTTIIFTCGPQHSAVNFPQYEYMSFAANMPLAAYRDIPKITASGNLEVITEKDILRLLPPYKRAADQLKILFTLSAYRYDRLGYYDKSFRELYRMSFDEVFAGTPIQLLARQFQQNLNMAEQKIDANNQKRVIPYIALKPSLVINSISM
notes: N-terminal His6 tag (pET-28a, NdeI/XhoI) kept; codon-optimized synthetic gene; E. coli BL21(DE3)
B1 gave a Km (purified protein [1]) of 68.9 ± 3.5 µM, a kcat (purified protein [1]) of 19.6 ± 0.277 s⁻¹ and a kcat/Km (purified protein [1]) of 285000 ± 10000 M⁻¹ s⁻¹. For the same protein, the Km (purified protein [2]) was 67.0 ± 3.6 µM, the kcat (purified protein [2]) was 15.6 ± 0.452 s⁻¹ and the kcat/Km (purified protein [2]) was 233000 ± 6670 M⁻¹ s⁻¹. It also gave a Km (purified protein [3]) of 63.9 ± 4.8 µM, a kcat (purified protein [3]) of 13.9 ± 0.348 s⁻¹ and a kcat/Km (purified protein [3]) of 218000 ± 11700 M⁻¹ s⁻¹.
